B1: Eterna 7716457 (Exclusion - Theophylline B) (ssRNA)
RNA: CGUUUAUAGCAGGAUACCAGUACCCAUUAUGUACGUUUAUAGUAGAGUGAUGUUCUAAAGUACCCUUGGCAGCUUCCCGUGACCC
B2: Eterna 7675404 (Same State - Tryptophan A) (ssRNA)
RNA: UGGCGAGUGAUGUUCGUUGUUGUAGUGUGUCGAGGACCGGUACGGCCGCCACUCGAGUUGGUUGUUGUUGUUGCUGUUGUUGCUG
B3: Eterna 7721239 (Exclusion - Theophylline B) (ssRNA)
RNA: GGAAUAACCUGGGAUACCAGUCGGAGGACUAGGGAUCGGAGUGAUGUUCUGGGAUGUUUCGGCCCUUGGCAGCUCUGGUUUUCCG
B4: Eterna 1615 (Same State - Theophylline A) (ssRNA)
RNA: UGCACCAGUGAUGUUGGUCGGCACCGAGAUACCAGCUGAUCUCUUAGCCCUUGGCAGCUCUUUAUUCGCGUUAUCAGUUUCUUCG
B5: Eterna 7702594 (Exclusion - Arginine B) (ssRNA)
RNA: GUUACGCAUGGAAGGAGCGCACUCCGAUUGAUCGACACAGUGAUGUUGUGGUUCGUUCGAAUGCAGGUAGGUCGCCAUGUGUAAC
B6: Eterna 10494 (Sensor v3, turn-off variant 2) (ssRNA)
RNA: AGUACUAACACGAAAGUGUUAGUCCAAUAAGCUUGUGAAACAUGAGGAUCACCCAUGUCCUCAUAAGCUCGUCUUAU
B7: Eterna 7758370 (Same State - Tryptophan B) (ssRNA)
RNA: UGUCAUUGGUCGGCCGCCACUUCAUAAAGAGUGAUGUUCUUAAAGACGGAUCGAAAGAUCUGUCGAAGGACCGGGACCGAUGACU
B8: Eterna 6071251 (Exclusion 3) (ssRNA)
RNA: GCACUGACAGGAUAUACAUGAGGAUCACCCAUGUGACCCUUACAGUACUCGCGUACUGGUAGAAGGGUCUGUGC
B9: Eterna 6416899 (Inverted Same State NG 1) (ssRNA)
RNA: CACAAAUGGCAGAAGGGACGGACGAUAGUGUAGUCAGGAUAUGCAAAUAGGUAUGGACAUGAGGAUCACCCAUGUCCGUCCUUU
B10: Eterna 7727764 (Exclusion - Tryptophan B) (ssRNA)
RNA: AAUAAACAGUCGGCCGCCACUUCAAUAGACUUAUUAUUGAAUGGUGUAGUUCUUCAGUGAUGUUGAAGGACCGGGACUUUCGCGC
B11: Eterna 7696143 (Exclusion - Theophylline B) (ssRNA)
RNA: UGAUACCAGACUGAUACCAGCCAGUGAUGUUGGCUAAUCCAAGAAGGAGUCAAAGACUCCGGCCCUUGGCAGCAGUCUGGUAUCU
B12: Eterna 7727640 (Exclusion - Tryptophan A) (ssRNA)
RNA: GGCCUGGUCGCCUAGUGAUUGUCGGUAGGACGAGGACCGGUACGGCCGCCACUCGGCUUACCCAGUGAUGUUGGGUAUCCGUGGC
B13: Eterna 7693586 (Exclusion - Tryptophan B) (ssRNA)
RNA: GGAUAGGACACGGCCGCCACUACCGAGGAUACUCGAAACAUUUCCUCAGAUGAGUGAUGUUCAUCUAGGACCGGGUGUCCUAUCG
B14: Eterna 7751925 (Exclusion - Tryptophan B) (ssRNA)
RNA: GGUAGCAUGGCGGCCGCCACUAAGAGAGUGAUGUUCUCUUAGUUUUUUGAUGUGUUAUCAAUUCUUAGGACCGGGCCAUGCUACC
B15: Eterna 7646225 (Same State - Tryptophan A) (ssRNA)
RNA: AAUAACAUGAGGAUCACCCAUGUAAGUAAACGAGGACCGGUACGGCCGCCACUCGAAUAAAUAAAGUACCGGUAAGAUCCAUAGA
B16: Eterna 7721560 (Exclusion - FMN A) (ssRNA)
RNA: CGAGUGAUGUUCGUUUUAAAAUUUUUUUGACAGGAUAUGCGGAAACGCAGAAGGGUCACCUUUGAGUUAAAAGAAAUUAAAUUUU
B17: Eterna 6382764 (Same State NG 3) (ssRNA)
RNA: GGACGUCACAUUAACAUGAGGAUCACCCAUGUGAAAACACAUGAGGAUAUGGAUCCUAAUUGGAUCCAGAAGGCAUGGACGUCC
B18: Eterna 7730299 (Same State - Arginine B) (ssRNA)
RNA: UGUAUGGACUGAAGGAGCGGGUAAAUAACCUGAGGAUCACCCAGGUAAAAGGCGAAAGCCACCCAGGUAGGUCGCAGUCCAUACU
B19: Eterna 6093766 (Exclusion NG 2) (ssRNA)
RNA: UGUCGGAGCAGAGGAUAUAUACAUGAGGAUCACCCAUGUAAAUGAAUGAGCUGGAAACAGCAAGUAUAGAAGGCUGCUCCGACA
B20: Eterna 5954774 (Same State NG 2) (ssRNA)
RNA: GUAGCAUACCGAGGAUAUUCAUAUAAUACAUGAGGAUCACCCAUGUUAUAUAGGCGAAAGCCUUGGGAGAAGGCGGAAUGCUAC
B21: Eterna 7692279 (Exclusion - Arginine B) (ssRNA)
RNA: AUUUUUUACAGAAGGAGCGUGUUUUAAUAAUCAUGGUGCUUAGCGAGUGAUGUUCGCUUUACACAGGUAGGUCGCUGUUUAUUUA
B22: Eterna 7755342 (Exclusion - FMN A) (ssRNA)
RNA: AAGUGUCAUUAGACACACCGAUGUAUAAACUAGGAUAUGCUGAUAAGCAGAAGGAGUGAUGUUCCUUUCAUCAUCGGAAUUAAAU
B23: Eterna 7730249 (Same State - Arginine B) (ssRNA)
RNA: UGUAUGGACUGAAGGAGCGCCUCAAAAUAGCAUGAGGAUCACCCAUGCAAGGCGAAAGCCGGGCAGGUAGGUCGCAGUCCAUACU
B24: Eterna 7687669 (Same State - Tryptophan B) (ssRNA)
RNA: UUUAUUAAGACGGCCGCCACUGAUUCAUAGUGAUGUUAUGAUAUAAUCUUAGUGAUAUUUAUAAACAGGACCGGGUCAAUUAUUA
B25: Eterna 7761084 (Exclusion - FMN A) (ssRNA)
RNA: CGAGUGAUGUUCGUUCGUAUAUUUGGGUGACAGGAUAUGCGGAAACGCAGAAGGGUCGCCUUCGGGUUACCCGAAUUGGCGUUUU
B26: Eterna 7685149 (Same State - Theophylline B) (ssRNA)
RNA: AAGUGUUCUAGUGAUACCAGACAAUUUUAUUUUUUCUUUUUUGCUAAGUGAUGUUUAGCAGUCCCUUGGCAGCACUAUUUCACUA
B27: Eterna 7626312 (Exclusion - Theophylline A) (ssRNA)
RNA: AGAUGCCACUGUGGAUAGCACGAUGCCGAUACCAGCUAGGAAACUAGCCCUUGGCAGCGGUACAUGAGGAUCACCCAUGUAUCCU
B28: Eterna 7694710 (Exclusion - FMN B) (ssRNA)
RNA: GGAUAGGACAGAGGAUAUGGACAGUCUACAAAGUAGGCUGAAAAUCCUUGAAUGGAAGUGAUGUUUCUAGAAGGCUGUCCUAUCG
B29: Eterna 7692524 (Same State - Theophylline A) (ssRNA)
RNA: UGAUAAUGCAGUGAUGUUGCUAGAAACGAUACCAGUUAAGAAAAGAACCCUUGGCAGCGUAAAGUGCGCUCUAAUGAGUGUGCUU
B30: Eterna 7700638 (Same State - FMN B) (ssRNA)
RNA: ACCUAGUACGUAGGAUAUCGAACAUCAUUUAGUGAGAUCGAGUGAUGUUCGAUCACGUCUUCAGUUCGAGAAGGACGUACUAGGA
B31: Eterna 7702469 (Exclusion - Arginine B) (ssRNA)
RNA: GUUACGCAUGGAAGGAGCGCGAAAAUUUAUAGUGAGUGAUGUUCACAAAUAAGAAUAAUAACGCAGGUAGGUCGCCAUGUGUAAC
B32: Eterna 7691982 (Same State - Arginine B) (ssRNA)
RNA: UGACUGGACUGAAGGAGCGAGCGAGACAAAGUCUCGAAAAUUCAGUGAUGUUGAAAUAUAACUCAGGUAGGUCGCAGUCUAGUCU
B33: Eterna 7740495 (Exclusion - Theophylline A) (ssRNA)
RNA: UCCUGCAAUCGUCCACGAAAGUGGAUCGAUACCAGAGUCGAAAGACUCCCUUGGCAGCGAGUGAUGUUCGAAGCAGGUAAAUAAA
B34: Eterna 6437027 (Inverted Exclusion NG 3) (ssRNA)
RNA: AUACAUGAGGAUCACCCAUGUUACUGGGUCUAUAUAGAACGUAGAAGGAUGUUUAUACACAUAACAUAGGAUAUACAAUAUUGU
B35: Eterna 7710066 (Exclusion - Tryptophan A) (ssRNA)
RNA: AGCUGGGAUCCUCAGCGUCAAAGACGCAGUCGAGGACCGGUACGGCCGCCACUCGACACGAGGAUCACCCGUGUCAUUCCCAGCA
B36: Eterna 6436150 (Inverted Small Loop Exclusion NG 3) (ssRNA)
RNA: AACCGCGACCGGCCUGGCACGCCGAGAAGGGUACGUGACCUGCUUUACAUGAGGAUCACCCAUGUACAGGAUAUCGGAUAGCCG
B37: Eterna 6430181 (Small Loop Exclusion NG 3) (ssRNA)
RNA: UAUAGCCCUAGUUCGAGUGUCUAGGAGGAUAUACAGAGGCAGCCAAAGACAUGAGGAUCACCCAUGUAGAAGGCCUAGACGGUA
B38: Eterna 6084833 (Exclusion 5) (ssRNA)
RNA: UCAUGCUAAGGAUAUGACGUCGGCUACAUGAGGAUCACCCAUGUGGGUUCGUUAUGGCCAUUAGAAGGUAGCGAUU
B39: Eterna 6454073 (Inverted Small Loop Exclusion NG 3) (ssRNA)
RNA: CUGUGACGGUGCGCAAGUGGACGUAGAAGGGUCACAUGAGGAUCACCCAUGUGGGCCUGCUAGUGACAGGAUAUACGUUCGUGC

The target of the data set is MS2 coat protein, dlFG mutant (Escherichia phage MS2, UniProt P03612, del68-81insG). Put plainly: 4 mM Mg2+; no ligand; RNA-MaP array; 100 mM Tris-HCl pH 7.5, 80 mM KCl, 4 mM MgCl2, 0.1 mg/mL BSA, 1 mM DTT, 0.01 mg/mL yeast tRNA, 0.01% Tween-20; protein 1.5 nM to 3 uM; 37 C (Table S3). Conditions: chain copies: 2; label: tethered by stalled RNA polymerase.
As for B1, the Kd was more than 3000 nM. On to B2, for which the dissociation constant (Kd) is more than 3000 nM. With B3 the figure was more than 3000 nM; with B4, more than 3000 nM. With B5 the figure was more than 3000 nM; with B6, 15.2 nM. To B7 belongs more than 3000 nM; to B8, 35.4 nM; to B9, 15.2 nM. In the case of B10, the dissociation constant (Kd) was more than 3000 nM. To B11 belongs more than 3000 nM; to B12, more than 3000 nM; to B13, more than 3000 nM. To B14 belongs more than 3000 nM; to B15, 21.3 nM. Molecule B16 came in with a Kd of more than 3000 nM. With B17, the affinity, expressed as Kd, was 27.8 nM.

Molecule B18 registered a Kd of 10.9 nM.

B19 gave a Kd of 14.9 nM. To B20 belongs 16.3 nM; to B21, more than 3000 nM. To B22 belongs more than 3000 nM. B23: the dissociation constant Kd turned out to be 12.6 nM. In other words, the double-digit nanomolar range. With B24 the figure was more than 3000 nM. To B25 belongs more than 3000 nM; to B26, more than 3000 nM; to B27, 13.2 nM. For the molecule B28, the dissociation constant (Kd) was more than 3000 nM. The molecule B29 showed a Kd of more than 3000 nM. Take B30: the Kd is more than 3000 nM. For B31, the dissociation constant Kd was more than 3000 nM. For the molecule B32, the dissociation constant Kd is more than 3000 nM. To B33 belongs more than 3000 nM; to B34, 33.3 nM. With B35 the figure was 379 nM; with B36, 5.68 nM; with B37, 13.6 nM. On to B38, for which the Kd came out at 19.6 nM. With B39 the figure was 19.3 nM.

By Kd is commonly meant the concentration at which binding is half-saturated.

The record behind these values is article PMC9170038, “Crowdsourced RNA design discovers diverse, reversible, efficient, self-contained molecular switches”.
